# Molecular target: T1, factor Xa (FXa, Kordia) (UniProt P00742 41-179; P00742 235-488, limits assumed)
# T1 construct: The bovine factor Xa of the Rotachrom kit is a different reagent and is not used here
# Test: ratio of kon for FXa inhibition against plasma AT, with pentasaccharide
# Method: In a second time FXa residual activity is measured by adding 190 μl of S2765 (200 μM) to 10 μl of previous mixture. Initial rate of substrate hydrolysis is then plotted as the function of incubation time with inhibitor and curves are fitted with equation 1 to determine kon (gray lines). Time expressed in minute is plotted in abscissa; substrate hydrolysis rate expressed in OD/s⁻¹ is plotted in ordinate.
# T1 sequence (P00742 41-179 limits assumed, form in doubt, chain 1 of 2): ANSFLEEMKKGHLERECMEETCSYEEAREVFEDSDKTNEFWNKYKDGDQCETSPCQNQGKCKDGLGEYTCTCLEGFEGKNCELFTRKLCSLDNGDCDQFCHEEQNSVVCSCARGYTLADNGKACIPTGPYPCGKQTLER
# T1 sequence (P00742 235-488 limits assumed, form in doubt, chain 2 of 2): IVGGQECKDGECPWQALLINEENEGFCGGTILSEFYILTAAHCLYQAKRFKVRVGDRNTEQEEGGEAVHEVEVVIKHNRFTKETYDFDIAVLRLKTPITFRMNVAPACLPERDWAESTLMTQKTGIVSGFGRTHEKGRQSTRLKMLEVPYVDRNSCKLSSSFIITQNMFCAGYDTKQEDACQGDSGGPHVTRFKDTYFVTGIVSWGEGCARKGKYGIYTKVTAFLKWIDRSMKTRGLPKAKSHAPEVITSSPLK
binder,measurement,value
"AT-N135Q-Pro394 (other, Recombinant double mutant antithrombin made in HEK-293 or BHK-21 cells, secreted) HGSPVDICTAKPRDIPMNPMCIYRSPEKKATEDEGSEQKIPEATNRRVWELSKANSRFATTFYQHLADSKNDNDNIFLSPLSISTAFAMTKLGACNDTLQQLMEVFKFDTISEKTSDQIHFFFAKLNCRLYRKAQKSSKLVSANRLFGDKSLTFNETYQDISELVYGAKLQPLDFKENAEQSRAAINKWVSNKTEGRITDVIPSEAINELTVLVLVNTIYFKGLWKSKFSPENTRKELFYKADGESCSASMMYQEGKFRYRRVAEGTQVLELPFKGDDITMVLILPKPEKSLAKVEKELTPEVLQEWLDELEEMMLVVHMPRFRIEDGFSLKEQLQDMGLVDLFSPEKSKLPGIVAEGRDDLYVSDAFHKAFLEVNEEGSEAAASTAVVIAGRPSLNPNRVTFKANRPFLVFIREVPLNTIIFMGRVANPCVK",fold lower kon than plasma AT,≥ 7600 fold

# — patent US20100298224A1 (UNIVERSITE PARIS SUD XI, published 2010)
